Measured values reported in patent US20130224246A1.

Tests used:
[1] = target: MBP-LEL113-201, maltose-binding protein linked to the CD81 large extracellular loop between residues 113 to 201 (UniProt P60033); experiment: EIA: HCVpp lysate on coated MBP-LEL113-201, detected with H53
[2] = target: MBP-LEL113-201, maltose-binding protein linked to the CD81 large extracellular loop between residues 113 to 201 (UniProt P60033); experiment: EIA: E2661-his on coated MBP-LEL113-201, detected with anti-His

MBP-LEL113-201, maltose-binding protein linked to the CD81 large extracellular loop between residues 113 to 201, sequence (P60033 113-201 limits assumed): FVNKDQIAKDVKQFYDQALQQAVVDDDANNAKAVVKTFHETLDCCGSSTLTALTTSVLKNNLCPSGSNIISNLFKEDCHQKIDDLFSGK

Q: For “HCVpp E2 C459A (from UniProt P27958 384-746)”, which CD81-binding function (reduced) [1] is on record?
A: 40%

Q: For “HCVpp E2 C486A (from UniProt P27958 384-746)”, which % of WT LEL-binding activity retained [1] is on record?
A: 80%

Q: “E2661-his M+C459A (from UniProt P27958 384-661)” was tested. Which fold reduction in LEL binding [2] did it give?
A: 16 fold

Q: “E2661-his C452A/C459A (from UniProt P27958 384-661)” was tested. Which % of WT CD81-LEL binding activity retained [2] did it give?
A: 40%

Q: And the decrease in CD81 binding activity [2]?
A: 60%

Q: How did the reduction in CD81 binding ability [1] turn out when “HCVpp E2 C569A (from UniProt P27958 384-746)” was run?
A: 70%

Q: How did the CD81-binding function (reduced) [1] turn out when “HCVpp E2 C452A (from UniProt P27958 384-746)” was run?
A: 80%
